Where two headings read alike, the source gives them in different places. Starred links: 1 amine or outer side, 2 acyl side, 3 side chain; linkers in the order of their positions; H or OH if unused. Non-standard residues stand in square brackets, D forms with d. Residues, ends and D or L forms follow the SMILES beside them. Groups on a side chain read outwards from the residue. No end group written: not given here. *: point of attachment. C18 diacid = O=C(O)CCCCCCCCCCCCCCCCC(=O)*; γGlu = O=C(O)[C@H](CCC(=O)[*:2])N[*:1]; αMeF = C[C@](N)(Cc1ccccc1)C(=O)O; AEEA = NCCOCCOCC(=O)O; Aib = CC(C)(N)C(=O)O
How the values were obtained:
Pancreatin = experiment: Proteolytic resistance to fasted-state simulated intestinal fluid (FasSSIF/Pancreatin); format: in vitro ADME; conditions: 0 min, 37° C.
Method: A fresh suspension of FasSSIF/P (Fasted-State Simulated Intestinal Fluid+USP Pancreatin®) was prepared according to that described by Galia, Nicolaides, Hörter, Löbenberg, Reppas and Dressman: Pharm. Res. 15 (1998) 698-70.5, and USP XL requirements. The resulting preparation was used immediately without storage.
Peptide for evaluation (1.0 mg) was dissolved in pre-warmed FasSSIF without Pancreatin® (200 μL). To this fresh FasSSIF/Pancreatin® (100 μL) was added to initiate potential proteolysis. Following momentary vortexing of the reaction tube the mixture was incubated at 37° C. in a thermostatic water bath for the duration of the experiment. 25 μL aliquot of the co-incubated peptide-enzyme mixture was periodically withdrawn (t=0, 5, 10 15 and 30 min) and quenched immediately by addition to a solution of 10% TFA in 1:1 water/acetonitrile (75 μL) to arrest proteolytic activity. Quenched samples were centrifuged (7800 RPM, 3 mins) to pellet solids and 10 μL aliquots of the supernatant solution were analyzed using analytical RP-HPLC as follows: Analytical RP-HPLC method: Agilent Polaris C8-A column (4.6×100 mm, 3 micron) eluted with a linear binary gradient of 10-90% MeCN (0.1% TFA v/v) in water (0.1% TFA v/v) over either 10 or 15 mins at 1.5 mL min^−1 at 40° C. with detection by UV absorption at 210 nm. […]

[1] = target: T1, porcine pancreatic pepsin (Sus scrofa, UniProt P00791); experiment: Proteolytic resistance to FasSSGF containing porcine pancreatic pepsin; format: in vitro ADME; conditions: 0 min, FasSSGF with pepsin, 37° C.
T1 construct: purchased Sigma P7012
Method: (§1) Lyophilized porcine pancreatic pepsin (Sigma: P7012) was reconstituted to 0.5 mg/mL (˜2500 units/mL) in freshly prepared FasSSGF (Biorelevant media) to give the enzyme stock solution. Peptide stock solution was prepared to a concentration of 250 μM (˜1.0 mg/mL) in FasSSGF. 200 μL ([…], ˜250 units) of pepsin stock solution was added to 200 μL of peptide solution (1.0 mg/mL, ˜100 μg of peptide, ˜25 nmoles) and the mixture was co-incubated in a temperature-regulated incubator at 37° C. for the duration of the experiment. 30 μL aliquot of the peptide-enzyme mixture was periodically withdrawn (t=0, 5, 10, 15, and 30 min) and quenched immediately by addition of 80 μL of 0.1 M ammonium bicarbonate solution in water/acetonitrile (4:1, pH 8) to arrest proteolytic activity. 30 μL aliquot was analyzed by analytical RP-HPLC. Analytical RP-HPLC method: Agilent Polaris C8-A column (4.6×100 mm, 3 micron) eluted with a linear binary gradient of 10-90°/MeCN (0.1% TFA v/v) in water (0.1% TFA v/v) over either 10 or 15 mins at 1.5 mL min-1 at 40° C. with detection by UV absorption at 210 nm. Manual integration (AUC) allowed estimation of remaining intact peptide over the time course of the experiment.

Male C57Bl/6 mice = experiment: Mouse acute food intake study; format: in vivo; conditions: s.c., dose 10 nmol/kg, food intake at 24 h vs vehicle
Method: Male C57Bl/6 mice obtained from Jackson Laboratories or Charles River at 8-9 weeks of age and were housed one per cage in BioDaq (Research Diets) cages. Mice were placed on Alpha Dri bedding, standard chow diet (Envigo, 2018) and given water pouches. Mice were allowed to acclimate for 1-2 weeks. Body weight was measured to ensure appropriate acclimation. After acclimation, mice were sham dosed a minimum of 2 times prior to initiation of food intake study. On study day, mice were placed in clean cage bottoms, weighed, and fasted for 6-8 hours. Mice were sorted into groups based on average 24-hour food intake data and body weight. 1-2 hours prior to lights out, mice were dosed subcutaneously with one vehicle or test peptide dissolved in an appropriate vehicle at 5 mL/kg. Mice were left undisturbed and allowed access to food and water for 48 hours. Automated food intake was monitored in the BioDaq system was monitored during this time. Discrete food intake data was exported into MS Excel from which cumulative food intake data was generated and analyzed.

wildtype (WT) mice = experiment: Glucose change in wildtype mice; format: in vivo, mouse; conditions: s.c., 1.5 nmol/kg, somatostatin pretreatment 30 min prior to cpd
In short: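 Chow-fed wildtype mice, 8-14 weeks old, n=4-8/group, fasted 2 h before peptide injection, in some studies after octreotide 10 mg/kg 30 min before dosing. Blood glucose by glucometer at −30, 0, 30, 60, 120, 180, 240 and 360 min; mice reused up to 3 times with ≥1-week washout.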

[2] = tested on: T2, porcine pancreatic pepsin; experiment: Proteolytic resistance to FasSSGF containing porcine pancreatic pepsin; format: in vitro ADME; conditions: pig, simulated gastric fluid
T2 construct: purchased Sigma P7012
Method: as §1

neprilysin = target: T3, neprilysin (Homo sapiens, UniProt P08473); experiment: Proteolytic resistance to neprilysin; format: in vitro ADME; conditions: pH 8.3
T3 construct: purchased R&D Systems 1182-ZNC-010
In short: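 Peptide (~250 µM stock) was mixed 1:1 with recombinant neprilysin (100 µg/mL stock) in Tris/NaCl/NaHCO3 buffer, pH 8.3, at 37 °C. Aliquots taken at 0, 30 min, 1, 2, 4 and 24 h were TFA-quenched. Intact peptide remaining was estimated by RP-HPLC peak area at 210 nm.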

[3] = target: T4, Semaglutide (synthetic construct)
T4 sequence (peptide, Aib at 2; X20=Lys[O2Oc-O2Oc-γE-C18diacid]; C-terminal acid): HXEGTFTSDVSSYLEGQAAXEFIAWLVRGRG

human GLP-1 receptor [4] = target: T5, human GLP-1 receptor (human, UniProt P43220); experiment: cell-based or functional assay
human glucagon receptor [5] = target: T6, human glucagon receptor (human, UniProt P47871); experiment: cell-based or functional assay
human glucagon receptor [6] = target: human glucagon receptor (human, UniProt P47871); experiment: cell-based or functional assay; remark: listed apart in the source
human GLP-1 receptor [7] = target: human GLP-1 receptor (human, UniProt P43220); experiment: cell-based or functional assay; remark: listed apart in the source
human GLP-1 receptor [8] = target: T5, human GLP-1 receptor; experiment: cell-based or functional assay; remark: listed apart in the source
human glucagon receptor [9] = target: T6, human glucagon receptor; experiment: cell-based or functional assay; remark: listed apart in the source

T1 sequence (P00791 60-385): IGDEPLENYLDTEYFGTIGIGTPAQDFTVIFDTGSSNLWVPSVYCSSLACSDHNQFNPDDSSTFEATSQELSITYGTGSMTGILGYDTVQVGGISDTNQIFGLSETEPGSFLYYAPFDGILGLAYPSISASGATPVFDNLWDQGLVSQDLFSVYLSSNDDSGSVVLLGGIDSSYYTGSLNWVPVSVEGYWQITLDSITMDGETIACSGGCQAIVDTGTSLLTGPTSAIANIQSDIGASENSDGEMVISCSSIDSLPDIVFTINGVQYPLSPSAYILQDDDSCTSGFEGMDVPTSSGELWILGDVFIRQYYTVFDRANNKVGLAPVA
T3 sequence (P08473 whole entry): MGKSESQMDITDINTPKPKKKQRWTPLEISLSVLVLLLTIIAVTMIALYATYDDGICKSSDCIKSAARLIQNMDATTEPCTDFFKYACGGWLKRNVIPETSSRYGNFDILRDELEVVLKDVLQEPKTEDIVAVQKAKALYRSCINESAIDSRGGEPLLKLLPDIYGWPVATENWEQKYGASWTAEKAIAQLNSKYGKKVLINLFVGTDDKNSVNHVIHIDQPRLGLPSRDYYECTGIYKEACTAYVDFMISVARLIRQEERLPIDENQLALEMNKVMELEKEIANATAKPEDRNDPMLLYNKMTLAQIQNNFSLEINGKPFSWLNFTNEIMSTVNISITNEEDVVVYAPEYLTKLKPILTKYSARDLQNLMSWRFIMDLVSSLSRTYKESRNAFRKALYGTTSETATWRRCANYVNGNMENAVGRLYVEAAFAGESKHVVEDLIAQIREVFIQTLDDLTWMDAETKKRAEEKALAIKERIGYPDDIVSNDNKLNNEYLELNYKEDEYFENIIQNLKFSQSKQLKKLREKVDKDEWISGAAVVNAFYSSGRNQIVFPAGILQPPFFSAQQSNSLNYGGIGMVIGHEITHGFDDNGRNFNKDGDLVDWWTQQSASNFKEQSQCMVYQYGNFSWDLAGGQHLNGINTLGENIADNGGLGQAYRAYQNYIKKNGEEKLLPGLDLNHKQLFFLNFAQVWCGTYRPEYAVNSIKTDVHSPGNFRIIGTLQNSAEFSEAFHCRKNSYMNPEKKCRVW

Molecule: CC[C@H](C)[C@H](NC(=O)[C@H](Cc1ccccc1)NC(=O)[C@H](CCC(=O)O)NC(=O)[C@H](CCCCNC(=O)COCCOCCNC(=O)COCCOCCNC(=O)CC[C@H](NC(=O)CCCCCCCCCCCCCCCCC(=O)O)C(=O)O)NC(=O)[C@H](C)NC(=O)[C@H](C)NC(=O)[C@H](CCC(N)=O)NC(=O)CNC(=O)[C@H](CCC(=O)O)NC(=O)[C@H](CC(C)C)NC(=O)[C@H](Cc1ccc(O)cc1)NC(=O)[C@H](CO)NC(=O)[C@H](CO)NC(=O)[C@@H](NC(=O)[C@H](CC(=O)O)NC(=O)[C@H](CO)NC(=O)[C@@H](NC(=O)[C@H](Cc1ccccc1)NC(=O)[C@@H](NC(=O)CNC(=O)[C@H](CCC(=O)O)NC(=O)C(C)(C)NC(=O)[C@@H](N)Cc1cnc[nH]1)[C@@H](C)O)[C@@H](C)O)C(C)C)C(=O)N[C@@H](C)C(=O)N[C@@H](Cc1c[nH]c2ccccc12)C(=O)N[C@@H](CC(C)C)C(=O)N[C@H](C(=O)N[C@@H](CCCNC(=N)N)C(=O)NCC(=O)N[C@@H](CCCNC(=N)N)C(=O)NCC(=O)O)C(C)C [semaglutide, reference compound]
- % intact peptide over time (min), FasSSIF (Pancreatin): 100%
- % intact peptide over time (min), FasSSGF [1]: 100%

Molecule: CC[C@H](C)[C@H](NC(=O)[C@H](Cc1c[nH]c2ccccc12)NC(=O)[C@H](CCC(=O)O)NC(=O)[C@@H](NC(=O)[C@](C)(Cc1ccccc1)NC(=O)[C@H](CC(=O)O)NC(=O)[C@H](CCC(N)=O)NC(=O)[C@H](C)NC(=O)[C@H](C)NC(=O)[C@H](CCCCNC(=O)CC[C@H](NC(=O)CCCCCCCCCCCCCCCCC(=O)O)C(=O)O)NC(=O)[C@H](CO)NC(=O)[C@H](CC(=O)O)NC(=O)[C@H](CC(C)C)NC(=O)[C@](C)(Cc1ccccc1)NC(=O)[C@H](CCCCN)NC(=O)[C@H](CO)NC(=O)[C@@H](NC(=O)[C@H](CC(=O)O)NC(=O)[C@H](CO)NC(=O)[C@@H](NC(=O)[C@](C)(Cc1ccccc1)NC(=O)[C@H](CO)NC(=O)CNC(=O)[C@H](Cc1c[nH]cn1)NC(=O)C(C)(C)NC(=O)[C@@H](N)Cc1c[nH]cn1)[C@@H](C)O)C(C)C)C(C)C)C(=O)N[C@@H](C)C(=O)N[C@@H](CC(N)=O)C(=O)N[C@H](C(N)=O)[C@@H](C)O [Peptide 7] (H-H[Aib]HGS[αMeF]TSDVSK[αMeF]LDSK([γGlu-C18 diacid])AAQD[αMeF]VEWIANT-NH2; N-terminus assumed)
- 24 hr % Vehicle Food Intake (Male C57Bl/6 mice): 55.0%
- WT % glucose change 120 min (wildtype (WT) mice): 5.4%
- remaining at 10 min, 125 µM [2]: 60%
- % intact peptide over time, Neprilysin (neprilysin): 100%

Molecule: recombinant Neprilysin (from UniProt P08473) (enzyme)
- % intact peptide over time, 24 hr (% intact peptide at 24 hr) [3]: 48

Molecule: H[Aib]HGS[αMeF]TSDVSKKLDSRAAQD[αMeF]VQ[Aib]IANT-NH2 (not fully specified (residue 13)) [Peptide 406 of Table 10]
- hGLP-1R EC50 (pM) (human GLP-1 receptor [4]): 458 pM
- hGluc-R EC50 (pM) (human glucagon receptor [5]): 7310 pM

Molecule: H[Aib]QGTFTSDVSK[αMeF]LDTK([AEEA-AEEA-γGlu-C18 diacid])RAQDFVRWLLEAG-OH [Peptide 186]
- hGluc-R EC50 (pM), cAMP production (HTRF) (human glucagon receptor [6]): 101 pM
- hGLP-1R EC50 (pM), cAMP production (HTRF) (human GLP-1 receptor [7]): 44.9 pM

B1: Peptide 392 of Table 9 (peptide)
peptide: H[Aib]HGS[αMeF]TSDK([AEEA-AEEA-γGlu-C18 diacid])SK[αMeF]LDSRAAQD[αMeF]VQ[Aib]IANT-NH2
modifications: N-terminus assumed
SMILES: CC[C@H](C)[C@H](NC(=O)C(C)(C)NC(=O)[C@H](CCC(N)=O)NC(=O)[C@@H](NC(=O)[C@](C)(Cc1ccccc1)NC(=O)[C@H](CC(=O)O)NC(=O)[C@H](CCC(N)=O)NC(=O)[C@H](C)NC(=O)[C@H](C)NC(=O)[C@H](CCCNC(=N)N)NC(=O)[C@H](CO)NC(=O)[C@H](CC(=O)O)NC(=O)[C@H](CC(C)C)NC(=O)[C@](C)(Cc1ccccc1)NC(=O)[C@H](CCCCN)NC(=O)[C@H](CO)NC(=O)[C@H](CCCCNC(=O)COCCOCCNC(=O)COCCOCCNC(=O)CC[C@H](NC(=O)CCCCCCCCCCCCCCCCC(=O)O)C(=O)O)NC(=O)[C@H](CC(=O)O)NC(=O)[C@H](CO)NC(=O)[C@@H](NC(=O)[C@](C)(Cc1ccccc1)NC(=O)[C@H](CO)NC(=O)CNC(=O)[C@H](Cc1c[nH]cn1)NC(=O)C(C)(C)NC(=O)[C@@H](N)Cc1c[nH]cn1)[C@@H](C)O)C(C)C)C(=O)N[C@@H](C)C(=O)N[C@@H](CC(N)=O)C(=O)N[C@H](C(N)=O)[C@@H](C)O
- hGLP-1R EC50 (pM) (human GLP-1 receptor [8]): 312 pM
- hGluc-R EC50 (pM) (human glucagon receptor [9]): 6920 pM

Reference: US12630600B2 (MEDIMMUNE LIMITED, priority 2022, dated 2026)
